Tested on: intracellular proteome of ENR+CD and ENR organoids
Assay: LC-MS/MS TMT proteomics of ENR+CD versus ENR organoids
Type: cell-based, C57BL/6 mice
Settings: for Average logFC: ENR+CD versus ENR organoids, sample pairs in aggregate (n=4, 2 technical replicates from two biological donors); for M1-1 Log2 Median Normalized / M1-2 Log2 Median Normalized / M2-1 Log2 Median Normalized / M2-2 Log2 Median Normalized: protein abundance ratio ENR+CD versus ENR organoids, LC-MS/MS TMT proteomics; for M1-1 Log2 Median Normalized: sample pair M1-1; for M1-2 Log2 Median Normalized: sample pair M1-2; for M2-1 Log2 Median Normalized: sample pair M2-1; for M2-2 Log2 Median Normalized: sample pair M2-2; for change: up = enriched in ENR+CD, down = enriched in ENR, FDR<0.05 and log fold change cut-off

Molecule | Average logFC | M1-1 Log2 Median Normalized | M1-2 Log2 Median Normalized | M2-1 Log2 Median Normalized | M2-2 Log2 Median Normalized | change
Q80XU3 (protein, UniProt Q80XU3 1-234, looked up, full-length) MSRPVRNRKVVDYSQFQESDDADEDYGRDSGPPAKKIRSSPREAKNKRRSGKNSQEDSEDSEEKDVKTKKDDSHSAEDSEDEKDDHKNVRQQRQAASKAASKQREMLLEDVGSEEEPEEDDEAPFQEKDSGSDEDFLMEDDDDSDYGSSKKKNKKMVKKSKPERKEKKMPKPRLKATVTPSPVKGKAKVGRPTASKKSKEKTPSPKEEDEEAESPPEKKSGDEGSEDEASSGED | −1.313 | −1.892 | −0.72 | −1.5225 | −1.116 | down
Q768S4 (protein, UniProt Q768S4 1-302, looked up, full-length) MADTIFSSGNDQWVCPNDRQLALRAKLQTGWSVHTYQTEKQRRSQCLSPGELEIILQVIQRAERLDILEQQRIGRLVERLETMQRNVMGNGLSQCLLCGEVLGFLGSSSVFCKDCRKKVCTKCGIEASPGQKRPLWLCKICSEQREVWKRSGAWFYKGLPKYILPLKTPGRADDPHFRPLPVEPTETQPPSAETSRVYTWARGRVVSSDSDSDSDLSSSSLEDRPLPSGVKGTKGDKPRGDSGASMESPRLGPARPPSHLSGSQSSLGSEAGTGATEPQGGTPAQPEPRVPGKRHTWATPRY | 1.363 | 1.2 | 0.548 | 1.8455 | 1.859 | up
Q80V42 (protein, UniProt Q80V42 1-443, looked up, full-length) MDRARLWLGLLLPVVAALDFRYHHQEGMEAFLKSVAQNYSSITHLHSIGKSVRGRNLWVLVVGQTPKEHRVGIPEFKYVANMHGDETVGRELLLHLIDYLVSSYRKDPEITHLIDSTRIHIMPSMNPDGFEAVQKPDCYYSNGRENYNNYDLNRNFPDAFENNNVTKQPETLAIMEWLKTETFVLSANLHGGALVASYPFDNGVQATGTLLSRSLTPDDDVFQHLAYTYASRNPNMTKGDQCKNKRNFPNGIINGYSWYPLQGGMQDYNYIWAQCFEITLELSCCKYPREEKLPLFWNDNKASLIEYIKQVHLGVKGQVFDQSGAPLPNVIVEVQDRKHICPFRTNKLGEYYLLLLPGSYVINVTVPGHDSYLTKLTIPGKSQPFSALKKDFHLPLRWQPDSISVSNPSCPMIPLYKFMPSHSAATKPSLGVFFMTLLYVFFK | 1.366 | 1.517 | 1.383 | 1.3355 | 1.228 | up
Q7TQD2 (protein, UniProt Q7TQD2 1-218, looked up, full-length) MADSKAKPAKAANKTPPKSPGDPARAAKRLSLESEGANEGATAAPELSALEEAFRRFAVHGDTRATGKEMHGKNWSKLCKDCHVIDGKNVTVTDVDIVFSKIKGKSCRTITFEQFQEALEELAKKRFKDKSSEEAVREVHRLIEGRAPVISGVTKAVSSPTVSRLTDTSKFTGSHKERFDQSGKGKGKAGRVDLVDESGYVPGYKHAGTYDQKVQGGK | 1.241 | 1.195 | 1.666 | 0.7645 | 1.337 | up
Q7TNV0 (protein, UniProt Q7TNV0 1-380, looked up, full-length) MSAAAAPAAEGEDAPVPPSSEKEPEMPGPREESEEEEEDDEDDDEEDEEEEKEKSLIVEGKREKKKVERLTMQVSSLQREPFTVTQGKGQKLCEIERIHFFLSKKKPDELRNLHKLLYNRPGTVSSLKKNVGQFSGFPFEKGSTQYKKKEEMLKKFRNAMLKSICEVLDLERSGVNSELVKRILNFLMHPKPSGKPLPKSKKSSSKGSKKERNSSGTTRKSKQTKCPEILSDESSSDEDEKKNKEESSEDEEKESEEEQPPKKTSKKEKAKQKATAKSKKSVKSANVKKADSSTTKKNQKSSKKESESEDSSDDEPLIKKLKKPPTDEELKETVKKLLADANLEEVTMKQICKEVYENYPAYDLTERKDFIKTTVKELIS | −1.42 | −1.8 | −0.726 | −1.2915 | −1.861 | down

Reference: patent publication US11994512B2, “Single-cell genomic methods to generate ex vivo cell systems that recapitulate in vivo biology with improved fidelity” (Massachusetts Institute of Technology, priority 2018, dated 2024)
